For one substance, EC50 of Exendin4-induced cAMP generation (LANCE cAMP assay, transfected AD293 cells, 30 min with ligand + 100 µM IBMX) results are on record in paper PMC9849236.

The target of test [1] is SNAP-hGLP1R (human) (UniProt P43220).
Test [2] concerns the target SNAPf-mGLP1R (mouse) (UniProt O35659).
The target of test [3] is hGLP1R-GFP (human) (UniProt P43220).

Chain of UniProt O35659 (O35659 22-463): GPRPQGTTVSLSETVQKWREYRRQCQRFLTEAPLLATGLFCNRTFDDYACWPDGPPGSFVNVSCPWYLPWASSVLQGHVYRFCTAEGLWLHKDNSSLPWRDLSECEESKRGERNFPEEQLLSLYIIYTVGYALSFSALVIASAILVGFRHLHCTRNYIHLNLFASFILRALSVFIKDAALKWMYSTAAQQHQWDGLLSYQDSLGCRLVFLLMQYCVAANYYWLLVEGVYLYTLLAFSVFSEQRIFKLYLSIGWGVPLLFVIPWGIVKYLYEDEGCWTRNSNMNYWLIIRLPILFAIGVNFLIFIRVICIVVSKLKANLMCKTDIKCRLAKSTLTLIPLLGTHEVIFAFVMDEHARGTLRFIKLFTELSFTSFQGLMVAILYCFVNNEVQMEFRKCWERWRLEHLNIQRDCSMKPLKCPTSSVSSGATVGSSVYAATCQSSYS

Regarding Exendin4(1-39) (peptide), the EC50 of Exendin4-induced cAMP generation (LANCE cAMP assay, transfected AD293 cells, 30 min with ligand + 100 µM IBMX) in test [1] was determined as 8.02 pM; in test [2] it was 4.22 pM; in test [3] it was 5 pM.
